# Measurements: the RNAGym collection of RNA variant scans (doi:10.1073/pnas.2313332121)
# This sample holds only a part of the variants without activity.
# B1: TPR 5TU (parent)
# chain: GGAUCUUCUCGAUCUAACAAAAAAGACAAAUCUGCCACAAAGCUUGAGAGCAUCUUCGGAUGCAGAGGCGGCAGCCUUCGGUGGCGCGAUAGCGCCAACGUUCUCAACUAUGACACGCAAAACGCGUGCUCCGUUGAAUGGAGUUUAUCAUG
# Variants of: B1
# Assay: polymerase ribozyme fitness, log enrichment relative to wild type (log ratio); higher = more active; in vitro selection for triplet polymerase activity
# How it was run: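 Only genotypes with ≥10 input reads and ≥1 read per output were kept after Illumina sequencing of input and output libraries. These libraries were PCR-built, transcribed mutants of each subunit of a heterodimeric triplet polymerase ribozyme, each put through one triplicate in vitro selection round with frozen incubation at −7 °C, gel excision of extended constructs, streptavidin-bead capture and RT-PCR. Fitness is a logarithmic ratio of genotype enrichment to wild-type enrichment, from inverse-variance-weighted replicate averages, with the logarithm in base 2.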
row,Variant,polymerase ribozyme fitness (log ratio)
1,GGAUCUUCUCGAUCUAACAAAAAAGACAAAUCUGCCACAAAGCUUGAGAGCAUCUUCGGAUGCAGAGGCGGCAGCCUUCGCUGGCGCGAUAGCGCCAUCGUUCUCAGCUAUGACACGCAAAACGCGUGCUCCGUUGAAUGGAGUUUAUCAUG,≤ -4.2
2,GGAUCUUCUCGAUCUAACAAAAAAGACAAAUCUGCCACAAAGCUGGAGAGCAUCUUCGGAUGCAGAGGCGGCAGCAUUCGGUGGCGCGAUAGCGCCAACGUUCUCAACUAUGACACGCAAAACGCGUGGUCCGGUGAAUGGAGUUUAUCAUG,≤ -4.2
3,GGAUCUUCUCGAUCUAACAAAAAAGACUAAUUUGCCACUAAGCUUGAGAGCAUCUUCUGAUGCAGAGGCGGCAGCCUUCGGUGGCGUGAUAGCGCCAACGUUCUCAACUAUGACACGCAAAACGCGUGCUCCGUUGAAUGGAGUUUAUCAUG,≤ -4.2
4,GGAUCUUCUCGAUCUAACAAAAAAGACAGAUCUGCCACAAAGCUUGAGAGCAUCUUCGGAUGCAGAGGCGGCAGCCUUCGGUGGCUCGAUAGCGCCAACGUUCUCAACUAUGACACGCAAAACGCGUGCUCCGUUGAAUGGAAUUUAUCAUG,≤ -4.2
5,GGACUUUCUCGAUCUAACACAAAAGACAAAUCUGCCACAAAGCUUGAGAGCAUCUUCGGAUGCAGAGGCGGCAGCCUUCGGUGGCGAGAUAGCGCCACCGUUCUCAACUAUGACACGCAAAACGCGUGCUCCUUUGAAUGGAGUUUAGCAUG,≤ -4.2
6,GGAUCUUCUCGAUCUAACAAAAAAGACAAAUCUGCCACAAAGCUUGAGAGCAUCUUCGGAUGCAGAGGCGACAGCCUUCGGUGGCACGAUAGCGCCAACGUUCUCAACUAUGACACGCAAAACGCGUGCUCCGUUGAAUGGAGUUUAUCAUG,-3.5
7,GGAUCUACUCGAUCUAACAAAAAAGACAAAUCUGCCACAAAGCUUGAGAGCAUCUUCGGAUGCAGAGGCGGCAGCCUUCGGUGGCGCGAUAGCGCCAACGUUCUCAACUAGGACACGCAAAACGCGUGCUCCGUUGAAUGGAGUUUAUCAUG,-4.19
8,GGAUCUUCUCGCUCUAACAAAAAAGACAAAUCUGCCACAAAGCUUGAGAGCAUCUUCGGAUGCAGAGGCGGCAGCCUUCGGUGGCGCGAUAGCGCCAACGUUCUCAACUAUGACACGCAAAACGCGUGCUCCGUUGAAUGGCGUUUAUCAUG,-1.32
9,GGAUCUUCUCGAUCUAACAAAAAAGACACAUCUGCCACAAAGCGUGAGAGCAUCAUCGGAUGCAGAGACGUCAGCCUUCAGUGGCGCGAUAGAGCCAUCGUUCUCAACUAUGACACGCAAAACGCGUGCUCCGUUGACUGGAGUUUAUCAUG,≤ -4.2
10,GGAUCUUCUCGAUCUAACAAAAAAGACAAAUCUGCCACAAAGCUUGAGCGCAUCUUCGGAUGCAGAGGCGGCAGCCUUUGGUGGUGCGAUAGCGCCAACGUUCUCAACUAUGACACGCAAAACGCGUGCUCAGAUGAAUGGAGUUUAUCAUG,≤ -4.2
11,GGAUCUUCUCGAUCUAACAAAAAAGGCAAAUCUGCCACAAAGCUUGAGAGCAUCUUCGGAUGCAGAGGUGGCAGCCUUUGGUGGCGUGAUUGCGCCAACGUUCUCAACUAUGACACGCAAAACGCGUGCUCCGUUGAAUGGAGUUUAUCAUG,≤ -4.2
12,GGAUCUUCUCGAUCUAACAAAAAAGACAAAUCUGCCAUAAAGCUUGAGAGCAUCUUCGGAUGCAGAGGCGGCAGCCUUCGGUGGCGUGAUAGCGCCAACGUUCUCAACUAUGACACGCAAAACGCGUGCUCCGUUGAAUGGAGUUUAUCAUG,-1.19
13,GGAGCUUCUCGAUCUAACAAAAAAGACAAAUCUGCCAAAAAGCUUGCGAGCAUCUUCGGAUGCAGAGGCGGCAGCCUUCGGUGGGGCGAUAGCGCCAACGUUCUCAACUAUGACACGCAAAACGCGUGCUCCGUUGAAUGGAGUUUAUCAUG,-3.7
14,GGAUCUUCUCGAUCUAACGAAAAAGACAAAUCUGCCACACAGCUUGAGAGCAUCUUCGGAUGCAGAGGCGGCAGCCUUCGGUGGCGCGAUAGUGCCAACGUUCUCAACUAUGACACGCAAAACGCGUGCUCCGUUGAAUGGAGUUUAUCAUG,-0.92
15,GGAUCUUCUCGAUCUAACAAAAAAGACAAAUCUGCCACAAGGCUUGAGAGCAUGUUCGGAUGCAGAGGCGGCAGCCUUCGGUGACGCGAUAGCGCCAACGUUCUCAACUAUGACACGCAAAACGCGUGCUCCGUUGAAUGGAGUUUACCAUG,-3.53
16,GGAUCUUCUCGAUCUAACAAAAAAGACAAAUCUGCCACAAAGCUUGAGAGCAACUUCGGAUGCAGAGGCGGCAGCCUUCGGUGGCGCGAUAGUGCCAACGUUCUCAACUAUGACACGCAAAACGCGUGCUCCGUUGAAUCGAGUUUAUCAUG,≤ -4.2
17,GGAUCUUCUCGAUCUAACAAAAAAGACAAAUCUGCCACAAAGCUUGAGAGCAUCUUCGGAUGCAGAGGCGGCAGCCGUCGGUGGCGCGAUAGCGCCAACGUUCUCAUCUAUGACACGCAAAACGCGUGCUCCGUUGAAUGGAGCCUAUCAUG,≤ -4.2
18,GGAUCUUCUCGAUCUAACAAAAAAGACUAAUCUGCCACAAAGCUUGAGAGCAUCUUCGGAUGCAGAGGCGGCAGCCUUCGGUGGCGCGAUAGCGCAAACGUUCUCAACUAUGACACGCAAAACGCGUGCUCCGUUGAAUGGAGUUUAUCAUG,-3.93
19,GGAUCUUCUCGAUCUAGCAAAAAAGACAAAUCUACCACAAAGCUUGAGAGCAUCUACGAAUGCAGAGGCGGCAGCCUGCGGUGGCGCGAUAGCGCCAACGUUCUCAACUAUGACACGCAAAACGCGUGCUCCGUUGAAUGGAGUUUAUCAUG,≤ -4.2
